Patent publication US20230009582A1 (MEMO THERAPEUTICS, published 2023)

Molecular target: Siglec-9 protein (construct not stated; antigen of Examples 3 and 4) (human, UniProt Q9Y336 18-348, limits assumed)
Assay: ELISA, coated Siglec-9 1 µg/ml, antibody titrated, Abs 450 nm, three-parameter fit, n=3
Method: FIG. 2: Binding curves of monoclonal antibodies (68D4 and 224B1; comparative monoclonal antibodies mAbA and 5C6 & negative control 53C3) towards Siglec-9 as analysed by ELISA. Binding of the monoclonal antibody to Siglec-9, as determined by measurement of the accumulated coloured product at 450 nm after stopping the reaction, is plotted against the concentration of the monoclonal antibody under evaluation.
Antibody binding affinity towards Siglec-9 was measured by a dilution series of the analysed antibodies on a fixed concentration of Siglec-9 protein in ELISA. To this end, Siglec-9 was coated at 1 μg/ml in 50 mM carbonate-bicarbonate buffer pH 9.6 for 15-20 hours at 4° C. Antigen solution was washed away (Tecan Hydrospeed) and plates were blocked with 5% skimmed milk in phosphate-buffered saline (PBS) for 1 hour at room temperature. Plates were washed and antibodies were added at concentrations of 0-420 nM. After incubation at room temperature for 1 hour plates were washed once more. Bound antibodies were detected by addition of horseradish peroxidase (HRP)-coupled secondary antibodies. Rabbit antibodies were detected by polyclonal anti-rabbit IgG antibody (Biolegend), mAbA by anti-human Fab fragment (Sigma Aldrich). After a last washing step, plates were developed by the addition of 3,3′,5,5′-Tetramethylbenzidine (TMB; Sigma Aldrich). Reaction was stopped by addition of sulfuric acid. Absorbance was detected at 450 nm (Tecan, CM […] MONO 200). Data were fitted and EC50 values were determined by three-parameter analysis in GraphPad Prism (GraphPad Software)

Chain of Siglec-9 protein (construct not stated; antigen of Examples 3 and 4) (Q9Y336 18-348 limits assumed): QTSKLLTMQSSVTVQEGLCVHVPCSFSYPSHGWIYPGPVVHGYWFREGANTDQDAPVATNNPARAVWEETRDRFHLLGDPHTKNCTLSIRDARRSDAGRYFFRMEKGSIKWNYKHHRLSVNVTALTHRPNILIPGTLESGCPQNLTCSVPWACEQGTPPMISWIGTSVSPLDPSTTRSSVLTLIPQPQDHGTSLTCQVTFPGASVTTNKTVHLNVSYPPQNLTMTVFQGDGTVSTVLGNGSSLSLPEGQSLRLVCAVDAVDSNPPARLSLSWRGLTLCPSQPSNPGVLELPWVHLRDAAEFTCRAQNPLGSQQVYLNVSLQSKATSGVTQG

EC50: 100 pM
B1: monoclonal antibody 224B1 (rabbit) (antibody, V domains shown)
VH: QSVEESGGRLVTPETPLTLTCTASGFSLSSYYMSWVRQAPGKGLEWIGYIWTDGSAHYATWTKGRFTISKTSSTTVDLKITSPTTEDTATYFCVRANSGSHTYIEKFNLWGPGTLVTVSS
VL: DVVMTQTPASVEATVGGSVTIKCQASPSINDELSWYQQKPGQRPTLLIYEASALESGVPSRFKGSGSGTEFTLTIGDLECADAATYYCQCTYGSRSDISYGNTFGGGTEVVVKG
